Values quoted from earlier work as cited in PMC7654312.

Columns and labels:
[1] = molecular target: Lys210 (UniProt position 210, VVKVAKLGISE)
[2] = system: Lys210

| Substance | pKa [1] | pKa [2] |
| --- | --- | --- |
| Retro-aldolase RA95.0 (computationally designed) (synthetic construct (design on an indole-3-glycerol phosphate synthase TIM-barrel scaffold)) | 8.1 |  |
| Retro-aldolase RA95.5 (evolved variant of RA95.0) (synthetic construct (design on an indole-3-glycerol phosphate synthase TIM-barrel scaffold); T83K) |  | 7.6 |
